Assay [1] has as its target human IL-10 receptor (IL-10R) on T cells and B cells of human whole blood (human) (UniProt Q13651). The assay is described as follows: cell-based or functional assay.
For assay [2], the target named is T1, mouse IL-10 receptor (IL-10R) on T cells and B cells of C57BL/6 mouse splenocytes (mouse) (UniProt Q61727).
T1 sequence (looked up) 1: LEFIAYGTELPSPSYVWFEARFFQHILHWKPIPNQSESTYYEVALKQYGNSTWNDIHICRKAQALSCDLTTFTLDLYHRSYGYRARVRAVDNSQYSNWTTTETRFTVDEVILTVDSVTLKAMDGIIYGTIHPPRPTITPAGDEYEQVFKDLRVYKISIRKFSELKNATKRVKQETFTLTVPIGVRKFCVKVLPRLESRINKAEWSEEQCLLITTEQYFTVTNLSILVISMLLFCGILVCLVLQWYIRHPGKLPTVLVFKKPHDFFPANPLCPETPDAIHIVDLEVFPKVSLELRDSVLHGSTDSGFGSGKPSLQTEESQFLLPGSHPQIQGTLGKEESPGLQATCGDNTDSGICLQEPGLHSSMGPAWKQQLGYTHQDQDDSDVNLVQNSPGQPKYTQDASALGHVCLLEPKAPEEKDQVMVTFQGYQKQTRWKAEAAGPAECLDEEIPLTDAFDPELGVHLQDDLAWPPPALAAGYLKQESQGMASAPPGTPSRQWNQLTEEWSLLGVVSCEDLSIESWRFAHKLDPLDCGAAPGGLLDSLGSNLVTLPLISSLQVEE
T1 sequence (looked up) 2: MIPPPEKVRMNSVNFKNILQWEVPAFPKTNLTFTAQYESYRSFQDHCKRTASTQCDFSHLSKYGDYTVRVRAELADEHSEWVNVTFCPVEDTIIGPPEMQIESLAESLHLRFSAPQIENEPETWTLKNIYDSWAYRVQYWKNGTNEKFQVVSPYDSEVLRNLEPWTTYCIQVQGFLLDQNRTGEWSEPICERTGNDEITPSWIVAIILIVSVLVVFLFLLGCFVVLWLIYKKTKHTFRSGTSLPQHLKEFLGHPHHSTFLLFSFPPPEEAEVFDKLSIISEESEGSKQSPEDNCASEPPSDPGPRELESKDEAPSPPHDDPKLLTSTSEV
As to the kind of experiment: cell-based or functional assay.

Results on two substances are retold here after patent US20230087600A1.

Chain of human IL-10 receptor (IL-10R) on T cells and B cells of human whole blood (human) (Q13651 22-578, chain 1 of 2): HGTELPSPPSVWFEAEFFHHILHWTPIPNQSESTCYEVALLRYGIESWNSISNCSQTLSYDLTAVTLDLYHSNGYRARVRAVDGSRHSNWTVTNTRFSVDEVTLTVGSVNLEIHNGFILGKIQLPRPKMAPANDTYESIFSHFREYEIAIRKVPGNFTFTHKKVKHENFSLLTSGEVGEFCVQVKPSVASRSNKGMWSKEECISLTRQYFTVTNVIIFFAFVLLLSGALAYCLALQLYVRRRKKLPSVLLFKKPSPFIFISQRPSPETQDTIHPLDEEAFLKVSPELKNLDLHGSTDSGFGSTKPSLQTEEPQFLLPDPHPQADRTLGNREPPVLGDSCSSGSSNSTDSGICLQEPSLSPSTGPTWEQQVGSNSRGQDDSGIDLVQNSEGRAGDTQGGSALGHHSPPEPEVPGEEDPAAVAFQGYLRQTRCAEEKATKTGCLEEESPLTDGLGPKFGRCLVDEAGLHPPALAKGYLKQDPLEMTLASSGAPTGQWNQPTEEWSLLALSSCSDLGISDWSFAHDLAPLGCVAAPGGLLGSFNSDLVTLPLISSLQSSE
Chain of human IL-10 receptor (IL-10R) on T cells and B cells of human whole blood (human) (Q08334 20-325, chain 2 of 2, further chain): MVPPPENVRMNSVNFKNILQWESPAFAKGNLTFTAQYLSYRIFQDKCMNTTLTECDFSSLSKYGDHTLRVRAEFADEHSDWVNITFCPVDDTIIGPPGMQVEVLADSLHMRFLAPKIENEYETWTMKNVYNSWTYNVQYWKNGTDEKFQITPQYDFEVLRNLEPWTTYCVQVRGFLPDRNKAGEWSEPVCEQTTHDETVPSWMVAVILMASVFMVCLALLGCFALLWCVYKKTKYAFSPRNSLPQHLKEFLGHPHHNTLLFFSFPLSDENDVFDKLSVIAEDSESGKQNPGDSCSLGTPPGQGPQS

In assay [1], “5KPEG-hIL-10 (human IL-10 conjugated to 5 KD PEG) (from UniProt P22301 19-178) (ligand)” gave an STAT3 phosphorylation (pY705), flow cytometry, CD3+ T cells in human whole blood, EC50 of 167 pM and an STAT3 phosphorylation (pY705), flow cytometry, CD19+ B cells in human whole blood, EC50 of 347 pM.
As for “mIgG1-D265A-Fc-(G4S)4-mIL-10 (Fc fusion)”, in assay [2], the STAT3 phosphorylation (pY705), flow cytometry, B cells of C57BL/6 mouse splenocytes (CD19 + B cells), EC50 came out at 125 pM and the STAT3 phosphorylation (pY705), flow cytometry, CD3+ T cells of C57BL/6 mouse splenocytes, EC50 amounted to 441 pM.
